Substrate: CC(=NO)C(=O)O
Test: nitrite production by diazo-coupling, Hanes-Woolf plot
Format: biochemical, Alcaligenes faecalis
Conditions: Fe(II)-reconstituted enzyme, 10 mM Tris-HCl pH 8.0, 1 mM sodium ascorbate, 100 μM FeSO4, 37 °C, co-substrate O2, kcat apparent, per subunit

B1: rPOD (recombinant pyruvic oxime dioxygenase) (Alcaligenes faecalis) (protein)
chain: MDTPLRDKSYFDERATKEMATHLQQVQRDTRETMAFACRILAMTEQEAGLAGQISVRSERPGAYWTLRFGLGFDEATPEDFIEVDRDLNTLSGEGMANPATRFHLWVYEARPDVNSIIHTHSPWATVLATARQPLVISQMDMTPLHNDCAFLGEWPGVPIADQEGVIISKALGDKRAIILAHHGYLTAGKSCQEATYLSVYLERAARLQVRAQAAFGPLTPVDDTLAAEAHDYLLKPSIVNATFDYWSRQTQGIAPLTKTR
notes: full length, 261 residues, 29,106 Da; pET21a(+) NdeI/XhoI with own stop codon, untagged; expressed in E. coli BL21(DE3)-CodonPlus; homotetramer (135 kDa by gel filtration); Fe(II)-reconstituted
B1 showed a Km of 470 µM and a kcat of 4.69 s⁻¹.

Source: PMC5216522, “Pyruvic oxime dioxygenase from heterotrophic nitrifier Alcaligenes faecalis is a nonheme Fe^(II)-dependent enzyme homologous to class II aldolase” (Scientific Reports, 2017)
